Results on seven molecules are retold here after patent US20170218055A1 (UNIVERSITY OF CHICAGO, published 2017).

For assay [1], the target named is T1, SpAKKAA (non-toxigenic staphylococcal protein A variant) (Staphylococcus aureus, UniProt A0A0H3K686 37-327).
T1 construct: The four substitutions are made in each of the five domains (20 in all); Purified from E. coli; also called non-toxigenic protein A
Kind of assay: ELISA, antigen-coated plate, mAb titrated. (An ELISA detects its analyte on a solid surface through an enzyme-linked reagent.)

The target of assay [2] is T2, EKKAA immunoglobulin binding domain of SpAKKAA (Staphylococcus aureus, UniProt A0A0H3K686 37-92).
T2 construct: also called SpA-EKKAA; E domain; not shown: N-terminal six histidyl tag (pET15b)
Kind of assay: ELISA, antigen-coated plate, mAb titrated.

Assay [3] deals with T3, DKKAA immunoglobulin binding domain of SpAKKAA (Staphylococcus aureus, UniProt A0A0H3K686 96-149).
T3 construct: the construct is said to span residues 57-117 of mature SpA (61 residues), so its limits differ from the entry; not shown: N-terminal six histidyl tag (pET15b)
Put plainly: ELISA, antigen-coated plate, mAb titrated.

Assay [4] has as its target T4, AKKAA immunoglobulin binding domain of SpAKKAA (Staphylococcus aureus, UniProt A0A0H3K686 156-207).
T4 construct: the construct is said to span residues 118-175 of mature SpA and its limits may differ from the entry; not shown: N-terminal six histidyl tag (pET15b)
Put plainly: ELISA, antigen-coated plate, mAb titrated.

Assay [5] concerns the target T5, BKKAA immunoglobulin binding domain of SpAKKAA (Staphylococcus aureus, UniProt A0A0H3K686 214-265).
T5 construct: not shown: N-terminal six histidyl tag (pET15b)
Kind of assay: ELISA, antigen-coated plate, mAb titrated.

Assay [6] has as its target T6, CKKAA immunoglobulin binding domain of SpAKKAA (Staphylococcus aureus, UniProt A0A0H3K686 214-323).
T6 construct: the construct is said to span residues 234-291 of mature SpA and its limits may differ from the entry; not shown: N-terminal six histidyl tag (pET15b)
Put plainly: ELISA, antigen-coated plate, mAb titrated.

In assay [7] the target is T7, peptide H1 (helix 1 of the EKKAA IgBD).
T7 construct: Synthetic linear peptide, free NH2 and COOH ends as printed
T7 peptide: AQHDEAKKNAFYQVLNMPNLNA
Kind of assay: ELISA, antigen-coated plate, mAb titrated.

The target of assay [8] is T8, peptide H3 (helix 3 of the EKKAA IgBD).
T8 construct: Synthetic linear peptide
T8 peptide: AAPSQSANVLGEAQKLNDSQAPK
Put plainly: ELISA, antigen-coated plate, mAb titrated.

The target in assay [9] is T9, peptide H1+2 (helices 1+2 of the EKKAA IgBD).
T9 construct: Synthetic linear peptide; also called helix 1+2 peptide
Put plainly: ELISA, antigen-coated plate, mAb titrated.

The target of assay [10] is T2, EKKAA immunoglobulin binding domain of …. Put plainly: ELISA, antigen-coated plate.
Assay [11] concerns the target T10, peptide H2 (helix 2 of the EKKAA IgBD).
T10 construct: Synthetic linear peptide
T10 peptide: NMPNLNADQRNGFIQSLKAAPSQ
Put plainly: ELISA, antigen-coated plate, mAb titrated.

B1: mAb 7E2 (antibody, V domains shown)
VH: QIQLVQSGPELKKPGETVKISCKASGYTFTDYSVHWVKQAPGKGLKWMAWINTATGEPTFADDFKGRFAFSLETSARTAYLQINNLKNEDTATYFCAPQLTGPFAYWGHGTLVTVSA
VL: DIQMTQSPASLSASVGETVTITCRASENIHNYLAWYQQKQGKSPQLLVYNAKTLTDGVPSRFSGSGSGTQFSLKINSLQAGDFGSYYCQHSWSIPYTFGGGTRLQIR
notes: Mouse IgG1 hybridoma mAb
For B1, the Ka in assay [1] stood at 3.1e+08 M⁻¹; in assay [2], 2.9e+08 M⁻¹; in assay [3], 3e+08 M⁻¹; in assay [4], 3.6e+08 M⁻¹; in [5] it was 3.2e+08 M⁻¹; in [6], 2.8e+08 M⁻¹.

B2: mAb 3A6 (antibody, V domains shown)
VH: QIQLVQSGPELKKPGETVKISCKASGYNFTDYSMHWVKQAPGKGLKWVGWINTETAESTYADDFKGRFAFSLETSASTAYLQINSLKDEDTATFFCAHFDCWGQGTTLTVSS
VL: DVVMTQISLSLPVTLGDQASISCRASQSLVHSNGNTYLNWYLQKPGQSPKLLIHKVSNRFSGVPDRFSGSGSGTDFTLKISRVEAEDLGVYFCSQITYVPWTFGGGTKLEIK
notes: Mouse IgG1 hybridoma mAb
As for B2, the Ka in assay [1] came out at 1.37e+09 M⁻¹; in [2], 1.38e+09 M⁻¹; in [4], 2.05e+09 M⁻¹; in assay [5] it was 6.4e+08 M⁻¹; in [6], 4e+07 M⁻¹; in [7], 6e+07 M⁻¹. The results for the Ka in assay [8] and in [9] were 1e+07 M⁻¹ and 4.4e+08 M⁻¹, respectively.

B3: mAb 3D11 (antibody, V domains shown)
VH: QSGPELMKPGASVKISCKASGYSFTSYYMHWVKQSHGKSLEWIGYIDPFNGGTSYNQKFKGKATLTVDKSSSTAYMHLSSLTSEDSAVYYCARYGYDGTFYAMDYWGQGTSVTVSS
VL: RIVLTQSPAITAASLGQKVTITCSASSSVSYMHWYQQKSGTSPKPWIYEISKLASGVPARFSGSGSGTSYSLTISSMEAEDAAIYYCQQWSYPFTFGSGTKLEIK
notes: Mouse IgG2b hybridoma mAb raised against SpAKKAA; also called 3D11-HRP; HRP-3D11
As to B3, the binding result in [10] is given as “no binding”. For the same molecule, the Ka in assay [1] worked out at 3.93e+09 M⁻¹; in [4], 8.7e+08 M⁻¹; in assay [5], 3.92e+09 M⁻¹; in assay [6] it was 3.6e+09 M⁻¹; in assay [7] it was 2e+07 M⁻¹.

B4: mAb 5A10 (antibody, V domains shown)
VH: EVKLVESGGGLVKPGGSLKLSCAASGFAFSNYDMSWVRQTPEKRLEWVATISSGGTYPYYPDSVKGRFTISRDNAKNTLYLQLSSLRSEDTALYYCARGGFLITTRDYYAMDYWGQGTSVTVSS
VL: TIVLTQSPAIMSASPGEKVTMTCSASSSVSYMYWYQQKPGSSPRLLIYDTSNLASGVPVRFSGSGSGTSYSLTISRMEAEDAATYYCQQWSSYPPTFGGGTKLEIK
notes: Mouse IgG1 hybridoma mAb raised against SpAKKAA; also called 5A10-HRP; HRP-5A10
With B4, the Ka in [1] amounted to 8.47e+09 M⁻¹; in assay [2], 9.4e+09 M⁻¹; in assay [3] it was 8.19e+09 M⁻¹; in [4], 8.08e+09 M⁻¹; in assay [5], 7.03e+09 M⁻¹; in assay [6], 1.01e+10 M⁻¹.

B5: mAb 2F2 (antibody, V domains shown)
VH: VKLVESGGDLVKPGGSLKLSCAASRFTFSSYVMSWVRQTPEKRLEWVASIGSGGTTYYPDTVKGRFTISRDNARNILYLQMSSLRSDDTAMYYCTRGRGYGFAWYFDVWGAGTTVTVSS
VL: B4 VL
notes: Mouse IgG2b hybridoma mAb
On to B5, for which the Ka stood at 1.9e+09 M⁻¹ in [1]; 1.72e+09 M⁻¹ in [2]; 1.76e+09 M⁻¹ in assay [3]; 1.37e+09 M⁻¹ in assay [4]; 1.13e+09 M⁻¹ in [5]; 1.8e+09 M⁻¹ in assay [6].

B6: mAb 8E2 (antibody, V domains shown)
VH: KVQLQQSGAGLVKPGASVKLSCKASGYTFTEYSIHWVKQSSGQGLEWIGWFYPGSGYIKYNEKFKDKATLTADKSSSTVYMEFSRLTSEDSAVYFCARHGYGNYVGYAMDYWGQGTSVTVSS
VL: DIQMTQSPASLSASVGETVTITCRASEIIYSYLAWYQQKQGKSPQLLVYFAKTLAEGVPSRFSGSGSGTQFSLKINSLQPEDFGIYYCQHHYGTPYTFGGGTKLEIK
notes: Mouse IgG1 hybridoma mAb
With B6, the Ka in assay [1] was determined as 1.56e+09 M⁻¹; in assay [2] it was 1.4e+09 M⁻¹; in [3], 1.51e+09 M⁻¹; in [4], 1.52e+09 M⁻¹; in assay [5], 1.14e+09 M⁻¹; in assay [6] it was 1.26e+09 M⁻¹. For the same molecule, in assay [9], the Ka was 2.9e+08 M⁻¹.

B7: mAb 6D11 (antibody, V domains shown)
VH: QVQLQQSGAELVRPGTSVKVSCKASGNAFTNYLIEWIKQRPGQGLEWIGVINPGSGITNYNEKFKGKATLTADKSSNTAYMQLSSLSSDDSAVYFCSGSANWFAYWGQGTLVTVSA
VL: DIVLTQSPASLAVSLGQRASISCRASESVEYSGASLMQWYQHKPGQPPKLLIYAASNVESGVPVRFSGSGSGTDFSLNIHPVEEDDIAMYFCQQSRKVPSTFGGGTKLEIK
notes: Mouse IgG2a hybridoma mAb
For B7, the Ka in assay [3] was found to be 2.42e+09 M⁻¹; in assay [6], 4.75e+09 M⁻¹; in assay [7], 2.7e+08 M⁻¹; in assay [11] it was 1e+07 M⁻¹; in [9], 5.22e+09 M⁻¹.
